According to US20220010018A1 (ALBERT EINSTEIN COLLEGE OF MEDICINE, published 2022):

T1: Mouse B7-H3 (mouse, UniProt Q8VE98 29-244, limits assumed)
T1 construct: The construct used in SPR is not described; also called mouse B7-H3 (SPR antigen)
T1 sequence (looked up): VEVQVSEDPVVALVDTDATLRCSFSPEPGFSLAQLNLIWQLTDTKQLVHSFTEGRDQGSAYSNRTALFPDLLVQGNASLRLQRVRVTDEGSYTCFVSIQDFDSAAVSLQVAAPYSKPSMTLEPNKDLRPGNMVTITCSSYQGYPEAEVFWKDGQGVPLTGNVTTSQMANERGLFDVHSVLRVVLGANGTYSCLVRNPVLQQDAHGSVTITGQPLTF

T2: Human B7-H3 (human, UniProt Q5ZPR3 29-461, limits assumed)
T2 construct: also called human B7-H3 (SPR antigen)
T2 sequence: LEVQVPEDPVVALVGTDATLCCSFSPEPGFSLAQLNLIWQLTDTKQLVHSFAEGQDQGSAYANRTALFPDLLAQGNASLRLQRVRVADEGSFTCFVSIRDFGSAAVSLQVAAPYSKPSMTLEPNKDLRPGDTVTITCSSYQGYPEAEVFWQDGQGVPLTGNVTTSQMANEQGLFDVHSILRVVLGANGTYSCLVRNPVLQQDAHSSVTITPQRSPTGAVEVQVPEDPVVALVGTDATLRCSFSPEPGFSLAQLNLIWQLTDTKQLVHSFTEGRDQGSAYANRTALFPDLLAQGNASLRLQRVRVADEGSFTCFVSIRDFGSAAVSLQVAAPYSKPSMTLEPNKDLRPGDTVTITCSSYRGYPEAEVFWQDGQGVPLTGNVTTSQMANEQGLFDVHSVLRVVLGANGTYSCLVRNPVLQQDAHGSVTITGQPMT


Assays:
Mouse B7-H3 = biological target: T1, Mouse B7-H3; assay: Surface Plasmon Resonance
Human B7-H3 = biological target: T2, Human B7-H3; assay: Surface Plasmon Resonance

Binder | Kd (Mouse B7-H3) [nM] | koff (Mouse B7-H3) [s⁻¹] | kon (Mouse B7-H3) [M⁻¹ s⁻¹] | Kd (Human B7-H3) [nM] | koff (Human B7-H3) [s⁻¹] | kon (Human B7-H3) [M⁻¹ s⁻¹]
monoclonal antibody 8B12 (antibody, IgG3, V domains shown, Residue limits come from CLM-00006; also called mAb 8B12) VH: QVQLQQPGAELVKPGASVKMSCKASGYTFTSYWITWVKQRPGQGLEWIGDIYPGSGSTNYNEKFKSKATLTVDTSSSTAYMQLSSLTSEDSAVYYCARGGTRFSPFAYWGQGTLVTVSA VL: DVLMTQTPLSLPVSLGDQASISCRSSQSIVHSNGNTYLEWYLQKPGQSPKLLIYKVSNRFSGVPDRFSGSGSGTDFTLKISRVEAEDLGVYYCFQGSHVPWTFGGGTKLEIKR | 4.01 | 0.00237 | 592000 | 0.3 | 0.000459 | 1.51e+06
monoclonal antibody 12B4 (antibody, IgG2b, V domains shown, Residue limits come from CLM-00006; also called mAb 12B4) VH: QVQLQQPGAELVKPGASVKLSCKASGYTFTSYWMHWVKQRPGQGLEWIGMIHPNSGSTNYNEKFKSKATLTVDKSSSTAYMQLSSLTSEDSAVYYCARYYYGSSYAMDYWGQGTSVTVS VL: QIVLTQSPAIMSASPGEKVTITCSASSSVSYMHWFQQKPGTSPKLWIYSTSNLASGVPARFSGSGSGTSYSLTISRMEAEDAATYYCQQRSSYPYTFGGGTKLEIKR | 15.4 | 0.0184 | 1.19e+06 | 8.23 | 0.00509 | 618000
